Changes are numbered by the printed parent chain. Numbers in names are those of the source.
Key:
human IL-6 [1] = biological target: T1, human IL-6 (human, UniProt P05231 30-212); experiment: cell-based or functional assay
hyper IL-6 = experiment: cell-based or functional assay
[2] = biological target: T2, IL-6R on HEK-Blue IL6 reporter cells (UniProt P08887 20-468, limits assumed); experiment: cell-based or functional assay
T2 sequence (looked up): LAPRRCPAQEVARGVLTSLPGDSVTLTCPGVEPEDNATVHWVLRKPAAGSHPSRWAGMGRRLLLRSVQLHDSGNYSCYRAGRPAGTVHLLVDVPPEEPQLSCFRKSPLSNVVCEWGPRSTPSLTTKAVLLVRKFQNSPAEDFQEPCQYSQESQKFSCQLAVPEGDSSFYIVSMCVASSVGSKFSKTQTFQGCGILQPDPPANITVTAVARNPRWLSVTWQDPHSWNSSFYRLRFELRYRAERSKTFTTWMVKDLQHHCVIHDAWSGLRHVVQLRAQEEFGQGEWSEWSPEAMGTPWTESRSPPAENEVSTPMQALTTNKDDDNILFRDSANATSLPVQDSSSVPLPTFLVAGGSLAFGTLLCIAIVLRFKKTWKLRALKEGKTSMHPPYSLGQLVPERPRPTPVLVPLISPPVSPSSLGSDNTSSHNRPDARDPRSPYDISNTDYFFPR

human IL-6 [3] = biological target: T1, human IL-6; experiment: yeast Fab display; biotinylated IL-6 remaining after overnight competition with 2 uM IL-6
human IL-6 [4] = biological target: T1, human IL-6; experiment: yeast system; format in the assay not stated
human IL-6 [5] = biological target: T1, human IL-6; experiment: ELISA on plates coated with human IL-6, hybridoma supernatants

B1: EBI-030 IgG2 (antibody)
heavy: QVQLVQSGAEVKKPGSSVKVSCKASGYVLPNYLIEWVRQAPGQGLEWMGVTTPGGGTINYAQKFQGRVTITADESTSTAYMELSSLRSEDTAVYYCARSRWDPLYYYALEYWGQGTTVTVSSASTKGPSVFPLAPCSRSTSESTAALGCLVKDYFPEPVTVSWNSGALTSGVHTFPAVLQSSGLYSLSSVVTVPSSNFGTQTYTCNVDHKPSNTKVDKTVERKCCVECPPCPAPPVAGPSVFLFPPKPKDTLMISRTPEVTCVVVDVSHEDPEVQFNWYVDGVEVHNAKTKPREEQFNSTFRVVSVLTVVHQDWLNGKEYKCKVSNKGLPAPIEKTISKTKGQPREPQVYTLPPSREEMTKNQVSLTCLVKGFYPSDIAVEWESNGQPENNYKTTPPMLDSDGSFFLYSKLTVDKSRWQQGNVFSCSVMHEALHNHYTQKSLSLSPGK
light: DIVMTQSPDSLAVSLGERATINCRASESVDNYGIPFMNWYQQKPGQPPKLLIYAASNRGSGVPDRFSGSGSGTDFTLTISSLQAEDVAVYYCQQSEEVPLTFGQGTKLEIKRTVAAPSVFIFPPSDEQLKSGTASVVCLLNNFYPREAKVQWKVDNALQSGNSQESVTEQDSKDSTYSLSSTLTLSKADYEKHKVYACEVTHQGLSSPVTKSFNRGEC
Question: With B1 as the binder, how does the “IC50 fold less than that of EBI-029, HEK-Blue IL6 cells” value (human IL-6 [1]) read?
Answer: The value was greater than 50 fold.

Question: And the “IC90 fold less than that of EBI-029, HEK-Blue IL6 cells” value (human IL-6 [1])?
Answer: The value was roughly 4000 fold.

Question: And the “fold decrease in IC50 against EBI-029, HEK-Blue IL6 cells, 20 pM IL-6” value (human IL-6 [1])?
Answer: The value was roughly 50 fold.

Question: And the “fold decrease in IC90 against EBI-029, HEK-Blue IL6 cells, 20 pM IL-6” value (human IL-6 [1])?
Answer: The value was greater than 100 fold.

B2: EBI-031 (antibody, human IgG2, kappa)
heavy: B1 heavy with H311A
light: B1 light
Question: What does the source list for B2?
Answer: IC50, cis-signaling, HEK-Blue IL6 cells, 20 pM free IL-6 (human IL-6 [1]): 14.2 pM; IC50 fold less than that of EBI-029, HEK-Blue IL6 cells (human IL-6 [1]): > 75 fold; IC90 fold less than that of EBI-029, HEK-Blue IL6 cells (human IL-6 [1]): ~350 fold; fold decrease in IC50 against EBI-029, HEK-Blue IL6 cells, 20 pM IL-6 (human IL-6 [1]): ~50 fold; fold decrease in IC90 against EBI-029, HEK-Blue IL6 cells, 20 pM IL-6 (human IL-6 [1]): > 100 fold; fold greater potency than tocilizumab, cis-signaling, HEK-Blue IL6 cells (human IL-6 [1]): > 900 fold; IC50, trans-signaling, HEK-Blue IL6 cells, 200 pM hyper IL-6 (hyper IL-6): 32 pM; fold more potent than tocilizumab, cellular assays (hyper IL-6): > 900 fold

B3: Tocilizumab (antibody, human IgG1, kappa, V domains shown)
VH: QVQLQESGPGLVRPSQTLSLTCTVSGYSITSDHAWSWVRQPPGRGLEWIGYISYSGITTYNPSLKSRVTMLRDTSKNQFSLRLSSVTAADTAVYYCARSLARTTAMDYWGQGSLVTVSS
VL: DIQMTQSPSSLSASVGDRVTITCRASQDISSYLNWYQQKPGKAPKLLIYYTSRLHSGVPSRFSGSGSGTDFTFTISSLQPEDIATYYCQQGNTLPYTFGQGTKVEIKR
Question: Which “IC50, cis-signaling, HEK-Blue IL6 cells, 20 pM free IL-6” value [2] does the source give for B3 here?
Answer: The value was 12.9 nM.

B4: EBI-029 Fab I51T/S55G (Fab, V domains shown)
VH: QVQLVQSGAEVKKPGSSVKVSCKASGYALSNYLIEWVRQAPGQGLEWMGVTTPGGGTINYAQKFQGRVTITADESTSTAYMELSSLRSEDTAVYYCARSRWDPLYYYALEYWGQGTTVTVSS
VL: DIVMTQSPDSLAVSLGERATINCRASESVDNYGIPFMNWYQQKPGQPPKLLIYAASNRGSGVPDRFSGSGSGTDFTLTISSLQAEDVAVYYCQQSEEVPLTFGQGTKLEIKR
notes: The mutations were introduced into the wild-type EBI-029 Fab; also called 151T/S55G
Question: Does B4 bind (human IL-6 [3])?
Answer: Result: binds

B5: h64 IgG (antibody, V domains shown)
VH: B4 VH with L29F, T51I, G55S
VL: DIVMTQSPDSLAVSLGERATINCRASESVDNYGISFMNWYQQKPGQPPKLLIYAASNQGSGVPDRFSGSGSGTDFTLTISSLQAEDVAVYYCQQSKEVPLTFGQGTKLEIK
notes: Expressed as inline fusions with the human IgG1 constant domains; also called original h64 antibody; the original humanized molecule
Question: Which Kd (human IL-6 [4]) does the source give for B5 here?
Answer: Its Kd is 0.343 nM.

B6: EBI-029 Fab S30P/I51T/S55G (Fab, V domains shown)
VH: B4 VH with S30P
VL: B4 VL
Question: Does B6 bind (human IL-6 [3])?
Answer: Result: binds

B7: EBI-029 Fab A28V/I51T/S55G (Fab, V domains shown)
VH: B4 VH with A28V
VL: B4 VL
Question: Does B7 bind (human IL-6 [3])?
Answer: Result: binds

B8: murine 64 antibody (antibody, V domains shown)
VH: QVQLQQSGAELVRPGTSVKVSCKASGYAFSNYLIEWVKQRPGQGLEWIGVITPGSGTINYNEKFKGKAVLTADKSSSTVYMQLSSLTSDDSAVYFCAKSRWDPLYYYALEYWGQGTSVTVSS
VL: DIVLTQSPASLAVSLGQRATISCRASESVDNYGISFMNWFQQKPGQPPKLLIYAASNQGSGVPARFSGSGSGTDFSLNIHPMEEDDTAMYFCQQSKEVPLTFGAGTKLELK
notes: Murine monoclonal from a hybridoma; also called Hybridoma 64; m64
Question: Does B8 bind (human IL-6 [5])?
Answer: Result: binds
